# B1: Fre (enzyme, E. coli, UniProt P0AEN1 1-233, looked up)
# chain: MTTLSCKVTSVEAITDTVYRVRIVPDAAFSFRAGQYLMVVMDERDKRPFSMASTPDEKGFIELHIGASEINLYAKAVMDRILKDHQIVVDIPHGEAWLRDDEERPMILIAGGTGFSYARSILLTALARNPNRDITIYWGGREEQHLYDLCELEALSLKHPGLQVVPVVEQPEAGWRGRTGTVLTAVLQDHGTLAEHDIYIAGRFEMAKIARDLFCSERNAREDRLFGDAFAFI
# notes: Fre, NAD(P)H:flavin oxidoreductase of E. coli, GenBank M61182; also called oxidoreductase Fre; E. coli Fre; source: E. coli, recombinant, overexpressed, purified
# B2: MupA (enzyme, Pseudomonas fluorescens, UniProt Q9AH80 1-369, looked up)
# chain: MSVEQLLGLGVTNAARAPRQPAFSLLFFSDVREDISASEKYEFARSLTLFGDAQGFEAVYFPERHFHEFGAIYPDSAVMAASLIPQTRHIRFRTAGISLPLHHPARVVESWSMNDVLSGGRVDLGFGSGWSRPDFLLAPHAYEDRREVMWQRIEQVRRLWAGERLSFPGPGGDPVSVVTFPRPLQTSLNVWILVAQNTESFIAAGKAGFNVFTMLYGIDLPDLAEKIGLYRQARRDAGFDPASGRVTLMLHTLVGPDSAWVRRAVEAPFKDYIRSSLVAHMKARATPDGRPLDATEQENVLQYAFERYYETGALFGTVDEVRYRVGQVLETGVDEIACLMDFGVDYAVVHQSLPYLEQLVASFQERSAQ
# notes: MupA, trans-acting flavin-dependent monooxygenase of the mupirocin biosynthetic gene cluster of Pseudomonas fluorescens; Dimeric by SEC; a dimer of dimers above 2 mg/ml; Used unlabelled in the NMR experiments; also called flavin-dependent monooxygenase (FMO); FMNH2-dependent oxygenase
# Experiments:
# [1] = molecular target: the molecule itself; experiment: not stated; purification of recombinant Fre (Figure S6); how the dimer was shown is not told in the main text
# [2] = molecular target: the molecule itself; experiment: SEC; size exclusion chromatography of purified MupA (lower concentrations)
# [3] = molecular target: the molecule itself; experiment: SEC; size exclusion chromatography of purified MupA at higher concentrations (>2 mg/ml)
Protein,stoichiometry N [1],stoichiometry N [2],stoichiometry N [3]
B1,2,,
B2,,2,4

# — article PMC10952193, “Structure and Function of the α‐Hydroxylation Bimodule of the Mupirocin Polyketide Synthase” (Angewandte Chemie (Weinheim an Der Bergstrasse, Germany), 2023)
